Experimental data: PMC6302171

Molecular target: GFP-profilin-1 (UniProt P07737)
Experiment: co-immunoprecipitation, densitometric analysis of immunoblots
Details: HEK293 cells; cell lysate (1 mg); three independent experiments; parent: est. 6.8; read off a plot

Sequence of 3×FLAG-CLIC4 WT, Q9Y696 C35A (Q9Y696 whole entry C35A): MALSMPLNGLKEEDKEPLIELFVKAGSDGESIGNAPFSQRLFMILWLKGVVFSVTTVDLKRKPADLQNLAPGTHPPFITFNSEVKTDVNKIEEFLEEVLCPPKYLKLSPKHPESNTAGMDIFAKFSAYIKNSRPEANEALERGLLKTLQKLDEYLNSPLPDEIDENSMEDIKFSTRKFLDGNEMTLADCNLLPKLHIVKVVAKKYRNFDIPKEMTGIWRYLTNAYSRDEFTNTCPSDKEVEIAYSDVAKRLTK
Sequence of GFP-profilin-1 (P07737 2-140): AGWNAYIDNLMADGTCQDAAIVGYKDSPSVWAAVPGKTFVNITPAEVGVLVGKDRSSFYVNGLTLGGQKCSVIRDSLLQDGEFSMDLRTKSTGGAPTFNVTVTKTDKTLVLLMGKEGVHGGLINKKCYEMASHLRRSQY

response: 2 A.U.
Substance: 3×FLAG-CLIC4 WT, Q9Y696 C35A
